Assay results: US20230227540A1 (ABL BIO, published 2023)
Where “and” joins values, the source holds several entries; their conditions need not be identical. Equal values may be shown once.

Tests used:
α-syn aggregate [1] = biological target: T1, α-syn aggregate (human, UniProt P37840 1-140); test: ELISA (Example 2-2), column Fibrils
Experimental: ELISA analysis was performed to quantitatively analyze the binding affinity of the antibody of the present invention to the antigen. For this, alpha-synuclein antibody of the present invention was coated on a 96-well plate at a concentration of 1 mg/ml and treated with alpha, synuclein fibril aggregates at 10, 100, 1000 and 10,000 ng/ml. After washing with PBS, streptavidin conjugated with HRP and secondary antibody conjugate with biotin was treated and then reacted with TMB as a substrate. The absorbance was measured.

α-syn monomer = α-syn monomer (human, UniProt P37840 1-140); test: ELISA (Example 2-2), column Monomers
α-syn aggregate [2] = biological target: T1, α-syn aggregate; test: Octet (BLI), α-syn aggregate (Example 2-6)
Experimental: Specifically, the running buffer was 1 x KB buffer (cat. 18-1092) or 1 x PBS buffer at 1000 rpm, and the immobilization buffer was sodium acetate, pH 5 (10 mM, Cat 18-1068. α-syn monomers was immobilized the α-syn antigen, and fibrils was immobilized the test antibody. The target concentrations were 20 µg/ml for the monomer and 0.4 µg/ml for the fibril. The kinetics concentration was diluted sequentially two times from 50 nM for monomers and from 100 nM for fibrils, to give 7 points in total, respectively. Association/dissociation time was 5 min / 20 min for monomer and 5 min / 25 min for fibril. Biosensor was ARG2 and fitting was performed using 1: 1 fitting model.
Octet analysis was performed as described in Examples 2-4 using the ScFV anti-Syn antibodies selected in Example 1-2.

α-syn aggregate [3] = biological target: T1, α-syn aggregate; test: BIAcore (SPR), 1:1 binding model (Example 2-3), column Fibrils
Experimental: Quantitative analysis of the binding of alpha-synuclein antibody prepared in Example 1 to monomer and aggregate antigen was performed using BIAcore analysis.
The used instrument was T200 (GE Healthcare, S / N: 1565888). Protein A is used as a chip (GE Healthcare, Cat. 29-1275-56). 10 mM Glycine-HCl pH 1.5 (GE Healthcare, Cat. BR-1003-54) was regeneration buffer. The running buffer, analyte dilution, and the sample dilution buffer were HBS-EP. The α-syn antibodies (3A9, 9B11 and 11F11) prepared in Example 1 were diluted with 1 x HBS-EP (GE Healthcare, Cat. BR-1006-69), and alpha-synuclein monomer (1 mg/ml) and fibril protein (3 mg / ml) were serially diluted in duplicate and analyzed at 6 concentrations (0, 0.39, 1.56, 6.25, 25, 100 nM) including 0 nM in total. For the capture, the monomer was for RU of 800 (theoretical), and a fibril was for RU of 100 (theoretical). The capture phase was performed at contact time of 60 seconds, a flow rate of 30 µl / min, and a stabilization period of 180 seconds. The association phase was performed at the association time of 120 seconds and the flow rate was 30 µl/min. The dissociation phase was performed at the dissociation time of 360 seconds and the flow rate of 30 µl/min. The regeneration phase was performed twice time at the regeneration time of 240 seconds (primary) and 60 seconds (secondary) and a flow rate of 30 µl/min. The fitting was carried out suing 1: 1 binding model, and the evaluation software was BIACore T200 Evaluation software (GE healthcare).

| Binder | EC50 (α-syn aggregate [1]) | EC50 (α-syn monomer) | Kd (α-syn aggregate [2]) [pM] | Kd (α-syn aggregate [3]) [pM] |
| --- | --- | --- | --- | --- |
| 10F10 (antibody, IgG2a, V domains shown, Only the variable domains are tied to the clone as tested; also called mouse monoclonal anti α-Syn antibody 10F10) VH: EVQLQESGPGLVKPSQSLSLTCSVTGYSITGGFYWNWIRQFPGNNLEWMGYINYDGSSDYSPSLKNRISITRDTSKNQFFLNLNSVTTEDTATYYCVRGDYDWGQGTTLTVSS VL: not shown | 0.087 nM and 0.0131 µg/mL | 0.0233 µg/mL and 0.155 nM | 810 |  |
| 3A9 (antibody, V domains shown, Only the variable domains are tied to the clone as tested; also called mouse monoclonal anti α-Syn antibody 3A9) VH: EVQLQESGGGLVKPGGSLKLSCAASGFTFSSYAMSWVRQTPEKRLEWVATISNGGGYTYYPDSVKGRFTISRDNAKNTLYLQMSSLRSEDTAMYYCARHITTVRPTKYFDYWGQGTTLTVSS VL: DIVMTQSPKFMSTSVGDRVSITCKASQNVGTTVAWYQQKPGQSPKLLIYSASNRYTGVPDRFTGSGSGTDFTLTISNMQSEDLADYFCQQYSNYPLTFGAGTKLELR | 0.319 µg/mL and 2.13 nM |  | 130 | 1320 |
| AC8 (scFv, V domains shown, Clone from a human scFv phage library; The screen used soluble HA-tagged scFv; The dot blot was detected with anti-human Fc-HRP, so an Fc-bearing format may have been used there; also called ScFV anti α-Syn antibody AC8) VH: EVQLLESGGGLVQPGGSLRLSCAASGFTFSDYSMSWVRQAPGKGLEWVSGISSGGSSKYYADSVKGRFTISRDNSKNTLYLQMNSLRAEDTAVYYCAKIFHNFDYWGQGTLVTVSS VL: QSVLTQPPSASGTPGQRVTISCSGSSSNIGSNNVYWYQQLPGTAPKLLIYYDSQRPSGVPDRFSGSKSGTSASLAISGLRSEDEADYYCASWDASLSAYVFGGGTKLTVLG |  |  | 240 |  |
| DG11 (scFv, V domains shown, Clone from a human scFv phage library; also called ScFV anti α-Syn antibody DG11) VH: EVQLLESGGGLVQPGGSLRLSCAASGFTFSDYAMSWVRQAPGKGLEWVSVISPGSGSKYYADSVKGRFTISRDNSKNTLYLQMNSLRAEDTAVYYCAKVTISCARMRCSYADGMDVWGQGTLVTVSS VL: QSVLTQPPSASGTPGQRVTISCTGSSSNIGSNSVSWYQQLPGTAPKLLIYANSNRPSGVPDRFSGSKSGTSASLAISGLRSEDEADYYCAAWDASLSAYVFGGGTKLTVLG |  |  | 2660 |  |
| AD2 (scFv, V domains shown, Clone from a human scFv phage library; also called ScFV anti α-Syn antibody AD2) VH: EVQLLESGGGLVQPGGSLRLSCAASGFTFSNYAMSWVRQAPGKGLEWVSAISHSGSSKYYADSVKGRFTISRDNSKNTLYLQMNSLRAEDTAVYYCARSGNNFDYWGQGTLVTVSS VL: QSVLTQPPSASGTPGQRVTISCTGSSSNIGNNSVSWYQQLPGTAPKLLIYSDNNRPSGVPDRFSGSKSGTSASLAISGLRSEDEADYYCGSWDASLSGYVFGGGTKLTVLG |  |  | 1670 |  |
| AA9 (scFv, V domains shown, Clone from a human scFv phage library; also called ScFV anti α-Syn antibody AA9) VH: EVQLLESGGGLVQPGGSLRLSCAASGFTFSSYSMSWVRQAPGKGLEWVSAIYPGSSNKYYADSVKGRFTISRDNSKNTLYLQMNSLRAEDTAVYYCARHAATFDYWGQGTLVTVSS VL: QSVLTQPPSASGTPGQRVTISCSGSSSNIGSNYVSWYQQLPGTAPKLLIYGDNKRPSGVPDRFSGSKSGTSASLAISGLRSEDEADYYCGAWDDSLSGYVFGGGTKLTVLG |  |  | 880 |  |
| DA9 (scFv, V domains shown, Clone from a human scFv phage library; also called ScFV anti α-Syn antibody DA9) VH: EVQLLESGGGLVQPGGSLRLSCAASGFTFSNYAMSWVRQAPGKGLEWVSVISPSDSNTYYADSVKGRFTISRDNSKNTLYLQMNSLRAEDTAVYYCARVTLSCRASRCSYSNGMDVWGQGTLVTVSS VL: QSVLTQPPSASGTPGQRVTISCSGSPSNIGNNSVSWYQQLPGTAPKLLIYANSHRPSGVPDRFSGSKSGTSASLAISGLRSEDEADYYCGSWDASLNGYVFGGGTKLTVLG |  |  | 4310 |  |
| DG8 (scFv, V domains shown, Clone from a human scFv phage library; also called ScFV anti α-Syn antibody DG8) VH: EVQLLESGGGLVQPGGSLRLSCAASGFTFSDHAMSWVRQAPGKGLEWVSVISHGNGSKYYADSVKGRFTISRDNSKNTLYLQMNSLRAEDTAVYYCARVASRCRRGRCSYSDGMDVWGQGTLVTVSS VL: QSVLTQPPSASGTPGQRVTISCSGSSSNIGSNSVSWYQQLPGTAPKLLIYANNNRPSGVPDRFSGSKSGTSASLAISGLRSEDEADYYCGAWDSSLSAYVFGGGTKLTVLG |  |  | 3800 |  |
| AE8 (scFv, V domains shown, Clone from a human scFv phage library; also called ScFV anti α-Syn antibody AE8) VH: EVQLLESGGGLVQPGGSLRLSCAASGFTFSNYAMSWVRQAPGKGLEWVSAISSGGGNIYYADSVKGRFTISRDNSKNTLYLQMNSLRAEDTAVYYCARRPLYFDYWGQGTLVTVSS VL: QSVLTQPPSASGTPGQRVTISCSGSSSNIGNNSVNWYQQLPGTAPKLLIYANNNRPSGVPDRFSGSKSGTSASLAISGLRSEDEADYYCGSWDASLNGYVFGGGTKLTVLG |  |  | 390 |  |
| AD7 (scFv, V domains shown, Clone from a human scFv phage library; also called ScFV anti α-Syn antibody AD7) VH: EVQLLESGGGLVQPGGSLRLSCAASGFTFSGYAMSWVRQAPGKGLEWVSAISPNGGNKYYADSVKGRFTISRDNSKNTLYLQMNSLRAEDTAVYYCARRPVYFDYWGQGTLVTVSS VL: not shown |  |  | 170 |  |
| 11F11 (antibody, IgG2b, V domains shown, Only the variable domains are tied to the clone as tested; also called mouse monoclonal anti α-Syn antibody 11F11) VH: EVQLQESGGGLVQPGGSLRLSCATSGFTFSDFYMEWVRQPPGKRLEWIAASRNKANDYTTEYSASVKGRFIVSRDTSQSILYLQMNALRAEDTAIYYCARDAHGKPFAYWGQGTLVTVSA VL: not shown | 0.327 µg/mL and 2.18 nM |  | 160 | 2870 |
| 1E4 (antibody, V domains shown, Antibody purified from a mouse hybridoma, raised against the full-length (140 residues) α-Syn aggregate; Only the variable domains are tied to the clone as tested; also called mouse monoclonal anti α-Syn antibody 1E4) VH: EVQLQESGAELVRPGTSVKVSCKASGYAFTNYLIEWVKQRPGQGLEWIGVINPGSGGTNYNEKFKGKATLTADKSSSTAYMQLSSLTSDDSAVYFCASGNYDTYWGQGTLVTVSA VL: DIVMTQSPLSLPVSLGDQASISCRSSQSLVHSNGNTYLHWYLQKPGQSPKLLIYKVSNRFSGVPDRFSGSGSGTDFTLKISRVEAEDLGVYFCSQSTHVPRTFGGGTKLEIK | 0.0245 µg/mL and 0.163 nM |  | 180 |  |
| 9B11 (antibody, V domains shown, Antibody purified from a mouse hybridoma, raised against the full-length α-Syn aggregate; Only the variable domains are tied to the clone as tested; also called mouse monoclonal anti α-Syn antibody 9B11) VH: EVQLQESGGGLVQPKGSLKLSCAASGFTFNTYAMNWVRQAPGKGLEWVARIRSKSNNYATYYADSVKDRFTISRDDSQSMLYLQMNNLKTEDTAMYYCVRQDFDYWGQGTTLTVSS VL: DIVMTQSPLSLPVSLGDQASISCRSSQSLVHSNGNTYLHWYLQKPGQSPKLLIYKVSNRFSGVPDRFSGSGSGTDFTLKISRVEAEDLGVYFCSQSTHVPLTFGAGTKLEQK | 0.185 µg/mL and 1.23 nM |  | 18 | 904 |
| DG5 (scFv, V domains shown, Clone from a human scFv phage library; also called ScFV anti α-Syn antibody DG5) VH: EVQLLESGGGLVQPGGSLRLSCAASGFTFSNYAMSWVRQAPGKGLEWVSVISPGSGNTYYADSVKGRFTISRDNSKNTLYLQMNSLRAEDTAVYYCARVTIACPTKRCSYSNGMDVWGQGTLVTVSS VL: not shown |  |  | 1260 |  |
